Laboratory results as given in US20110207628A1.

What was measured:
[1] = biological target: tubby-N (N-terminus of mouse tubby, 1M-242P), GST-free (mouse) (UniProt P50586); assay: clonal phage on immobilized tubby-N, plaque assay
[2] = biological target: FLAG-tubby-F (full-length mouse tubby with N-terminal FLAG tag) (mouse) (UniProt P50586); assay: clonal phage on immobilized FLAG-tubby-F, plaque assay
[3] = biological target: Axl-Fc (Axl extracellular domain fused to human IgG1 Fc fragment) (human); assay: clonal phage on immobilized Axl-Fc, plaque assay

Chain of FLAG-tubby-F (full-length mouse tubby with N-terminal FLAG tag) (mouse) (P50586 other isoform, or with tags, fused parts or gaps): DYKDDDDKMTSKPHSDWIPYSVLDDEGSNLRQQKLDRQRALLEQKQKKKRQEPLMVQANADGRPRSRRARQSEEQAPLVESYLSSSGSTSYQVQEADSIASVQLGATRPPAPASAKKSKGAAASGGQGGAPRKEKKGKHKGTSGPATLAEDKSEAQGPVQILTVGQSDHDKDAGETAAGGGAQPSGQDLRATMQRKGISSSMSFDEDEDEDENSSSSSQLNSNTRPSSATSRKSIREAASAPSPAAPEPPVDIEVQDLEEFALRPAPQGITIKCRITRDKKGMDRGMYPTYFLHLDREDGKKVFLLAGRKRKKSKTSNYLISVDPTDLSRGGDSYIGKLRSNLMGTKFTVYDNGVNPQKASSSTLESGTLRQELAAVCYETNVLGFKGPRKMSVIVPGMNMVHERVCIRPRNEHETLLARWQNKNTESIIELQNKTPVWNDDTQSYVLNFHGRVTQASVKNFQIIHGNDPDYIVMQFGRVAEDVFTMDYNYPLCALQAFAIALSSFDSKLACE
Chain of tubby-N (N-terminus of mouse tubby, 1M-242P), GST-free (mouse) (P50586 1-242): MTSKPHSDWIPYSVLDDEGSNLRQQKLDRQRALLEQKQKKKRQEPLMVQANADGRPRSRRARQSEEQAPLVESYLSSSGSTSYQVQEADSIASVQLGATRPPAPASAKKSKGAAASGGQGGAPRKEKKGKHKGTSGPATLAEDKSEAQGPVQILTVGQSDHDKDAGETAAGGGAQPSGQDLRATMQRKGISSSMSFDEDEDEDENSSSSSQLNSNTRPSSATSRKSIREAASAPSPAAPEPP

| Substance | Binding to tubby-N (binding specificity of clonal phage vs. control phage) [1] | Binding to tubby-F (binding specificity to FLAG-tubby-F vs. to GFP-FLAG) [2] | Binding activity (pfu ratio of clonal phage binding to immobilized Axl-Fc versus blank) [3] |
| --- | --- | --- | --- |
| High mobility group box 2-like 1 (Hmgb211) 170K-305G, phage clone | 29.8 X (fold) | 5 X (fold) |  |
| PH180: Lectin, galactose binding, soluble 3 (Lgals3) 131Y-264I, phage clone (from UniProt P16110 131-264) |  |  | 1380 X (fold) |
| Paf1/RNA polymerase II complex component (Rtf1) 69N-186K, phage clone (from UniProt A2AQ19 69-186) |  | 6.2 X (fold) |  |
| Unknown protein encoded by Chromosome X Genomic contig, alternate assembly (NW_001035178, 7824017-7824523 bp), phage clone | 40.1 X (fold) | 3.1 X (fold) |  |
